Experimental data published in patent US6191256A, “Recombinant factor VIII binding peptides” (Bayer Corporation, priority 1998, dated 2001).

Assays:
rFVIII [1] = target: T1, rFVIII (Homo sapiens, UniProt P00451); test: column format binding assay, rFVIII mass per fraction by sandwich capture ELISA for the light chain; settings: for 0.5M CaCl2 ng / 0.5M CaCl2 % total / 2% acetic acid % total / 2% acetic acid ng / Flow through % total / Total ng / Flow through ng: Table 6; for Flow through ng: 10,000 ng rFVIII in 1:10 PPF injected, 5° C.; for ELISA results % total: Table 9, 0.5M CaCl2 fraction
T1 sequence (P00451 20-2351): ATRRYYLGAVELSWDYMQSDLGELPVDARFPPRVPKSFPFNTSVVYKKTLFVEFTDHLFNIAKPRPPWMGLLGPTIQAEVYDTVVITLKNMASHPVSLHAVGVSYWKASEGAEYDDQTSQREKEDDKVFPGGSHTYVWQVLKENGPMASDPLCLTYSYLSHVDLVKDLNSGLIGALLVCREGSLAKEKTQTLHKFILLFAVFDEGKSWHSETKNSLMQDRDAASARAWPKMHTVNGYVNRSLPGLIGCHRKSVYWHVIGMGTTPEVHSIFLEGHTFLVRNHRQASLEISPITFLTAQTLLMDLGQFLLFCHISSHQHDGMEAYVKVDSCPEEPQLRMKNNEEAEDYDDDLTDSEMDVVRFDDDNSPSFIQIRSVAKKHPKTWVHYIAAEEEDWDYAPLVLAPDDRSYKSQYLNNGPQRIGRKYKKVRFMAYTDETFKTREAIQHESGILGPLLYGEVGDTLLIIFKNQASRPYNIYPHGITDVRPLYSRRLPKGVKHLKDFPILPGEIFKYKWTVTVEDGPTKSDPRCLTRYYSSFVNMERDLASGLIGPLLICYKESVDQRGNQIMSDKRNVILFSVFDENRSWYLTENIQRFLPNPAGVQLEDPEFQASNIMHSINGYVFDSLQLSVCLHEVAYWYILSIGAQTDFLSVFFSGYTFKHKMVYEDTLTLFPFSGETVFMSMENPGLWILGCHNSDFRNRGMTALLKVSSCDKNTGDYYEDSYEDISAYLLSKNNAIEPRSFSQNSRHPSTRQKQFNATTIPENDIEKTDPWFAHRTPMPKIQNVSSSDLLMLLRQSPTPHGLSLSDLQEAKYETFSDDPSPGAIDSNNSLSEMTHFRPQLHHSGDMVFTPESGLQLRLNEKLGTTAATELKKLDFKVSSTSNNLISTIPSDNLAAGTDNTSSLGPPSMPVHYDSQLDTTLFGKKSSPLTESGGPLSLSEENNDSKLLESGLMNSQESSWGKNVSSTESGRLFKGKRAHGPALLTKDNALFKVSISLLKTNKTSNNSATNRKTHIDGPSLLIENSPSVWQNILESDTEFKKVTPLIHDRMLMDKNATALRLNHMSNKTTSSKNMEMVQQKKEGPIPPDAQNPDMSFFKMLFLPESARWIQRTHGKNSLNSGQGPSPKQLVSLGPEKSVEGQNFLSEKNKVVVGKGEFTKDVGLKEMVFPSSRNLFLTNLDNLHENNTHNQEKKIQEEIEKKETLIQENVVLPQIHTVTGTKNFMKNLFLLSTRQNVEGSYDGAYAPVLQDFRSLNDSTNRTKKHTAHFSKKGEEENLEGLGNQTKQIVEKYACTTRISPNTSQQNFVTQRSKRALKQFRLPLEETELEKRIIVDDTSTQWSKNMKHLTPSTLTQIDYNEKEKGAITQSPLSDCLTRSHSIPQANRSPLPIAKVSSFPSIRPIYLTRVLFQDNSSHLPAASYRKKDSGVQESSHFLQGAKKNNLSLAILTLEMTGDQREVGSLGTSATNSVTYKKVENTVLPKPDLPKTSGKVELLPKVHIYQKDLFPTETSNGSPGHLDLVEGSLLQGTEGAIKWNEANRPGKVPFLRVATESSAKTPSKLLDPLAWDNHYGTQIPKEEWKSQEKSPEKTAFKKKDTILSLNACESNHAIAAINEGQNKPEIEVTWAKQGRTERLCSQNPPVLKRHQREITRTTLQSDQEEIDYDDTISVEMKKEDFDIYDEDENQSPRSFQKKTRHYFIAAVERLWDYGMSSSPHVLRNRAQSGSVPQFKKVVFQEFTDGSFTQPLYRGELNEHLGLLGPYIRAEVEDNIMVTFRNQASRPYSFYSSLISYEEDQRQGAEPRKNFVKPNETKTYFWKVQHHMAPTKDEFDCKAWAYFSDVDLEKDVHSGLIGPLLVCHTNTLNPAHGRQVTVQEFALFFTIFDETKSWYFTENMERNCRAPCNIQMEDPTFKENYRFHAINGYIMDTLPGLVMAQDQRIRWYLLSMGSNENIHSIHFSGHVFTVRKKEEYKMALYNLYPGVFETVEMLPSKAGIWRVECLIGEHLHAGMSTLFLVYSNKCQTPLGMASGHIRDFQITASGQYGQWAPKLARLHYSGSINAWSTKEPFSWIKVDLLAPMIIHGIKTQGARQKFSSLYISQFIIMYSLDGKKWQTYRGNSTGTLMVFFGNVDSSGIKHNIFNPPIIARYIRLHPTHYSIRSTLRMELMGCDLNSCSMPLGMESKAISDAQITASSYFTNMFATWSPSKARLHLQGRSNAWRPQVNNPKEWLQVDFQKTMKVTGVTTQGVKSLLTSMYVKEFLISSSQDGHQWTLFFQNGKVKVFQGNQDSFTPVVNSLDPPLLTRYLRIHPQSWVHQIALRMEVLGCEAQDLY
T1 sequence (P00451 1668-2351 limits assumed): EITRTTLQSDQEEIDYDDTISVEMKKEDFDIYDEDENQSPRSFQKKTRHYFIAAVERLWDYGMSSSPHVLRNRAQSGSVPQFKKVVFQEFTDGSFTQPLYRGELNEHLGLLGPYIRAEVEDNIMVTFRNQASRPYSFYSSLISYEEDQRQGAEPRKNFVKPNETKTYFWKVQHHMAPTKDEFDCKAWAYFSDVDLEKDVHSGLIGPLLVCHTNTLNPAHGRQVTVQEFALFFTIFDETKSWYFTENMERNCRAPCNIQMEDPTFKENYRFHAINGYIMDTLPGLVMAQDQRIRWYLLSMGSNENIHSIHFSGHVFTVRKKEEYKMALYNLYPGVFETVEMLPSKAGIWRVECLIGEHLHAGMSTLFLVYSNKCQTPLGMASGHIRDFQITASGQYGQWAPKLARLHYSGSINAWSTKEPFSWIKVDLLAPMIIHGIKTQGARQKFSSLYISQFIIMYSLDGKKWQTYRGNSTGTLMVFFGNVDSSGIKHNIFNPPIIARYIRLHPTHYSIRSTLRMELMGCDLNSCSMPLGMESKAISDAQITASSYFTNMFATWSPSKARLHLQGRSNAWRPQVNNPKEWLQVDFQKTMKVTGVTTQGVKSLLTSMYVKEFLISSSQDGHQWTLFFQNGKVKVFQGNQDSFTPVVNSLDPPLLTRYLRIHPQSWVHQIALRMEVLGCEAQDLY
Protocol: (§1) Immunoassay on rFVIII using a sandwich capture ELISA for the light chain and activity assay using a chromogenic substrate (COATEST Factor VIII kit from diaPharma, Franklin, Ohio) were performed on a BIOMEK® automated liquid handling system from Beckman Instruments (Brea, Calif.). The monoclonal antibody for rFVIII light chain (known as C7F7), the ELISA assay standard (lot A70K019), and the control for the activity assay (lot A70A001 @ 140 IU/mL) were from the Bayer Corporation (Berkeley, Calif.). The standard for the activity assay was at 11.2 IU/mL (Bayer, Clayton, N.C.), calibrated against the MEGA 1 standard, which is a working standard used by American manufacturers for measuring factor VIII activity (21).
(§2) Additional confirmatory binding assay and performance of the discovered binding peptides in terms of total rFVIII and activity recovery was performed in a column chromatographic format on a microbore HPLC. The resins were packed into 0.4×5 cm columns (Thomson, Springfield, Va.) and tested on the MICHROM HPLC system (Michrom BioResources, Auburn, Calif.). The elution program for the trials utilized the following method. The column was pre-equilibrated with equilibration buffer (as above). A 1 mL aliquot of 1:10 PPF followed by 1 mL of rFVIII (10,000 ng) in 1:10 PPF were injected and allowed sufficient time to flow through the column using equilibration buffer. The column was then washed with step elutions of 0.5 M and 1.0 M CaCl2 in equilibration buffer. The column was exposed to equilibration buffer. Remaining protein was eluted with 2% by volume glacial acetic acid in water. Columns were kept at 5° C. during the chromatographic runs. For each 1 mL injection (equilibration buffer, 1:10 PPF and 10,000 ng rFVIII in 1:10 PPF), the chromatographic cycle was run for 45 minutes (injection, flow through, 0.5 M CaCl2, 1.0 M CaCl2, equilibration buffer, 2% acetic acid, equilibration buffer).
(§3) A Gilson FC204 fraction collector at the HPLC outlet collected individual eluates for further analysis. Each collection tube had 100 μL hSA added to it to stabilize the rFVIII. Fractions collected from the 2% acetic acid eluates were neutralized with 2 M Tris, pH 10.5 to bring the pH to neutrality. The fractions were analyzed for total protein by the integration of the absorbance at 280 nm, for rFVIII by immunoassay (sandwich capture ELISA), and for rFVIII activity by a chromogenic substrate assay.
Tables 5 and 6 present the results from the additional confirmatory binding assays using the column format. The chromatography method was run by injecting the samples at a flow rate of 865 μL/min (413 cm/hr). In order to provide a 10 minute residence time of sample in the column the flow was decreased to 17 μL/min (10 cm/hr) upon injection.
Following the incubation, the flow was set at 865 μL/min (413 cm/hr) for the step clutions of 0.5 M CaCl2, 1.0 M CaCl2, and 2% acetic acid. Results are expressed in terms of the total mass of rFVIII in each fraction, as determined by the sandwich capture ELISA assay for the rFVIII light chain. […] A control using a non-binding peptide sequence (IGF) is also shown for comparison--in this case, 95% of the rFVIII loaded to the column was collected in the flow through fraction. Additional controls with no

rFVIII [2] = target: T1, rFVIII; test: rFVIII activity recovery from peptide columns by chromogenic substrate assay (COATEST); assay type: biochemical; settings: for 0.5M CaCl2 IU / 2% acetic acid % total / 2% acetic acid IU / Flow through % total / Total IU / 0.5M CaCl2 % total / Flow through IU: Table 8; for 0.5M CaCl2 % total: activity recovery; for Flow through IU: rFVIII activity in fraction; for Activity results % total: Table 9, 0.5M CaCl2 fraction
Protocol: as §1, §2, §3
Tables 7 and 8 list the sequences for which activity recovery was determined by a chromogenic substrate assay (COASTEST kit, diaPharma, Franklin, Ohio). Chromatographc conditions are the same as described above for the results from Tables 5 and 6. It can be

rFVIII [3] = target: T1, rFVIII; test: confirmatory binding assay in filtration plate format using 14C-rFVIII; settings: for Total dpm / 0.5M CaCl2 % total / 2% acetic acid % total / 2% acetic acid dpm / 0.5M CaCl2 dpm / beads % total / beads dpm: Table 4; for Total dpm / beads % total / beads dpm: 14C-rFVIII 30 nM; for 0.5M CaCl2 % total / 2% acetic acid % total / 2% acetic acid dpm / 0.5M CaCl2 dpm: 14C-rFVIII 30 nM in PPF, 5 mg beads; for 0.5M CaCl2 dpm: 5.0 × 10^15 dpm/mole, 5° C.; for beads % total / beads dpm: remaining on beads after washes
Protocol: Confirmatory binding assays were performed in a filtration plate format using individual peptide sequences synthesized directly onto the TOYOPEARL AF amino 650 M resin, at a final substitution density of 0.1 mmole/g resin. A slurry of each individual peptide sequence was prepared using deionized water. A 100 μL volume of beads (corresponding to 5 mg) was loaded into each well of the filtration plate (MULTISCREEN Assay System, Millipore, Bedford, Mass.), in triplicate for each peptide sequence. Beads were washed with 20% ethanol and incubated overnight with equilibration buffer (20 mM imidazole, 10 mM
CaCl2, 0.105 M NaCl, pH 6.9). A 100 μL aliquot of ^14 C-rFVIII diluted in neat PPF to a final concentration of 20-30 nM was loaded into each well and incubated for 1 hour at 5° C. Filtrate (unbound ^14 C-rFVIII) was collected into a microtiter plate and transferred to liquid scintillation vials for dpm counting. Beads were washed sequentially with: 100 μL of equilibration buffer for 15 minutes, 200 μL of 0.5 M CaCl2 (in equilibration buffer), 200 μL of 1.0 M CaCl2 (in equilibration buffer), and 200 uL of 2% by volume glacial acetic acid in water, for 1 hour each at 5° C. Scintillation counting on the unbound ^14 C-rFVIII (plus equilibration buffer wash), salt and acid washes, as well as on the beads was then performed and the overall mass balance calculated.
Beads presenting the appropriate peptide sequence on the surface were placed in the filtration plate wells and incubated sequentially with equilibration buffer, ^14 C-rFVIII in PPF, equilibration buffer, 0.5 M CaCl2 wash, 1.0 M CaCl2 wash and 2% acetic acid wash. After each incubation, filtrate was collected in microtiter plates, and dpm counted on each
In Table 3, the ^14 C-rFVIII was loaded at 20 nM (in PPF) and the radiolabeling yield was at 3.0×10^15 dpm/mole. In Table 4, the ^14 C-rFVIII was loaded at 30 nM (in PPF) and the radiolabeling yield was at 5.0×10^15 dpm/mole.

0.5M CaCl2 ng (rFVIII [1]) [ng]	0.5M CaCl2 % total (rFVIII [1]) [%]	2% acetic acid % total (rFVIII [1]) [%]	2% acetic acid ng (rFVIII [1]) [ng]	Flow through % total (rFVIII [1]) [%]	Total ng (rFVIII [1]) [ng]	Flow through ng (rFVIII [1]) [ng]	0.5M CaCl2 IU (rFVIII [2]) [IU]	2% acetic acid % total (rFVIII [2]) [%]	2% acetic acid IU (rFVIII [2]) [IU]	Flow through % total (rFVIII [2]) [%]	Total IU (rFVIII [2]) [IU]	0.5M CaCl2 % total (rFVIII [2]) [%]	Flow through IU (rFVIII [2]) [IU]	Total dpm (rFVIII [3]) [dpm]	0.5M CaCl2 % total (rFVIII [3]) [%]	2% acetic acid % total (rFVIII [3]) [%]	2% acetic acid dpm (rFVIII [3]) [dpm]	0.5M CaCl2 dpm (rFVIII [3]) [dpm]	beads % total (rFVIII [3]) [%]	also measured	Substance
2850	32	1	75	66	8851	5828	14.7	0	0.00	73	58.6	25	42.9	2184	91	6	130	1994	3	ELISA results % total (rFVIII [1]): 32%; Activity results % total (rFVIII [2]): 25%; beads dpm (rFVIII [3]): 60 dpm	14 (EPRVIG) [compound 14]
4611	55	1	121	42	8427	3572	27.2	0	0.08	38	45.4	60	17.3	2330	93	5	115	2162	2	ELISA results % total (rFVIII [1]): 55%; Activity results % total (rFVIII [2]): 60%; beads dpm (rFVIII [3]): 53 dpm	15 (VYGVGG) [compound 15]
1075	25	60	2569	0	4283	0	9.9	7	1.4	2	19.5	51	0.5	2987	15	72	2148	457	13	beads dpm (rFVIII [3]): 382 dpm	19 (FHFGLQ) [compound 19]
36	1	95	4719	0	4966	0	0.4	45	3.5	0	7.8	4	0.0	3884	12	54	2099	485	33	beads dpm (rFVIII [3]): 1300 dpm	20 (WHHHRG) [compound 20]
1239	22	60	3284	0	5510	0	11.4	19	4.1	0	21.2	53	0.0	3484	21	63	2208	722	16	beads dpm (rFVIII [3]): 554 dpm	21 (HFQIFG) [compound 21]
4	0	100	4500	0	4504	0	0.0	100	2.3	0	2.3	0	0.0	4116	16	19	783	675	65	beads dpm (rFVIII [3]): 2658 dpm; binding of rFVIII in words (rFVIII [3]; plate format): tight binding	22 (FVFLVR) [compound 22]
